Reference: patent US20260139017A1, “COMPOSITIONS AND METHODS USING REELIN IN ALZHEIMER'S DISEASE” (The General Hospital Corporation, priority 2022, published 2026)

Biological target: Neuropilin 1 (NRP1), R&D 3870-N1-025 (UniProt O14786)
Test: BLI (Octet), biotinylated NRP1 on SA biosensor, 1:1 global fit

Neuropilin 1 (NRP1), R&D 3870-N1-025, sequence (O14786 other isoform, or with tags, fused parts or gaps limits assumed): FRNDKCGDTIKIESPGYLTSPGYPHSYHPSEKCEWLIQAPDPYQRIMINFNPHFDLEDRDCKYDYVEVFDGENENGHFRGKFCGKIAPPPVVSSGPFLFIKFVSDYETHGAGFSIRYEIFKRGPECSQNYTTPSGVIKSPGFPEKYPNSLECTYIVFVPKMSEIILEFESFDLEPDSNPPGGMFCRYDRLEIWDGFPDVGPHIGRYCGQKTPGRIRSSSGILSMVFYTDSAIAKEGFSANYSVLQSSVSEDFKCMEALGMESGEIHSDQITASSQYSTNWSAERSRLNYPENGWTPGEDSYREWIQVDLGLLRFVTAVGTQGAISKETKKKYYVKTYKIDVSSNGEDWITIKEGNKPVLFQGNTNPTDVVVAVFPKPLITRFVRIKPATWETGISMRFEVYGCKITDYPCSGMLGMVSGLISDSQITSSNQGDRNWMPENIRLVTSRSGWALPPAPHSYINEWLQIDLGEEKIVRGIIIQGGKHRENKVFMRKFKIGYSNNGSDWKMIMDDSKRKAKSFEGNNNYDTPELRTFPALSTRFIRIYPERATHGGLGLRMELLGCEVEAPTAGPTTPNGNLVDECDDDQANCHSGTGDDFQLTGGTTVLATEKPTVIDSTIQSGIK

Kd: 5.53 nM | koff: 0.0015 s⁻¹ | kon: 272000 M⁻¹ s⁻¹
Substance: Vascular endothelial growth factor (VEGF) (ligand)
